Numbered stars: 1 amine (or outer) side, 2 acyl side, 3 side chain; on linkers, the order of the positions; unused ones are H or OH. Bridge positions count the residues as written; N and C are the ends. Square brackets hold non-standard residues; d marks the D form. Ends that are not written are not given here. Peptide text beside a SMILES is read from it. KCOpipzaa = N6-(4-(carboxymethyl)piperazine-1-carbonyl)-L-lysine, O=C(NCCCC[C@H](N[*:1])C(=O)[*:2])N1CCN(CC(=O)[*:3])CC1; Phe(4-(4-pyridyl)) = N[C@@H](Cc1ccc(-c2ccncc2)cc1)C(=O)O; 3Pal(6-Ph) = N[C@@H](Cc1ccc(-c2ccccc2)nc1)C(=O)O; Phe(4-COOH) = N[C@@H](Cc1ccc(C(=O)O)cc1)C(=O)O; NMePhe(4-Me) = CN[C@@H](Cc1ccc(C)cc1)C(=O)O; Bip = N[C@@H](Cc1ccc(-c2ccccc2)cc1)C(=O)O; Phe(4-F) = N[C@@H](Cc1ccc(F)cc1)C(=O)O; hTyr = N[C@@H](CCc1ccc(O)cc1)C(=O)O; cisHyp = O=C(O)[C@@H]1C[C@H](O)CN1; Hyp = O=C(O)[C@@H]1C[C@@H](O)CN1; NMeF = CN[C@@H](Cc1ccccc1)C(=O)O; 4Pal = N[C@@H](Cc1ccncc1)C(=O)O; Aad = N[C@@H](CCCC(=O)O)C(=O)O; Cha = N[C@@H](CC1CCCCC1)C(=O)O; βAla = NCCC(=O)O
Experiments:
[1] = biological target: T1, BMP4 (Homo sapiens, UniProt P12644); assay: BMP4 signal transduction inhibitory activity: SMAD1 phosphorylation by BMP4 stimulus, AlphaLISA SureFire, A549 cells; format: cell-based; settings: for aLISA BMP4: A549 cells; for aLIZA BMP4 (0.2 nM) % Inh: SMAD1 phosphorylation by BMP4 stimulus; for aLIZA BMP4 (0.2 nM) % Inh / aLIZA BMP4 (0.2 nM) % inh: peptide conc. in assay 0.02, 0.2, 2 nM, class symbols
T1 sequence (P12644 293-408): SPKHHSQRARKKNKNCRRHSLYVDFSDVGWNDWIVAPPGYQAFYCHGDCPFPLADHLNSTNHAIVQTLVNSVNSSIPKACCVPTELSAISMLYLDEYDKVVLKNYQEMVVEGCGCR

[2] = biological target: T2, BMP7 (Homo sapiens, UniProt P18075); assay: BMP7 signal transduction inhibitory activity: SMAD1 phosphorylation by BMP7 stimulus, A549 cells; format: cell-based; settings: for aLISA BMP7: A549 cells; for aLIZA BMP7 (10 nM) % Inh: SMAD1 phosphorylation by BMP7 stimulus; for aLIZA BMP7 (10 nM) % Inh / aLIZA BMP7 (10 nM) % inh: class symbols
T2 sequence (P18075 293-431): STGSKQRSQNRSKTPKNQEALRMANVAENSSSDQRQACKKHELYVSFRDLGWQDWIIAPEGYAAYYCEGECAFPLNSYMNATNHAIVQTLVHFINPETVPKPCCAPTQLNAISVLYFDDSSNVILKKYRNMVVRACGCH
In short: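 Inhibition was measured as loss of BMP7-induced SMAD1 phosphorylation, using 10 nM BMP7 on A549 cells. Most peptides were given as three-concentration sets, such as 1/10/100, 10/100/1,000, 100/300/1,000 or 10/30/90 nM. Others were given as eight 1/3-ratio dilutions from 100 or 1,000 nM, alongside Noggin as control.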

[3] = peptide conc. in assay 10, 100, 1000 nM
[4] = SMAD1 phosphorylation, BMP4 0.2 nM, peptide conc. in assay 0.2, 2, 20 nM
[5] = SMAD1 phosphorylation, BMP7 10 nM, peptide conc. in assay 1, 10, 100 nM
[6] = inhibition of SMAD1 phosphorylation by BMP4 stimulus, peptides of Synthesis 2, classes A-C, ND
[7] = inhibition of SMAD1 phosphorylation by BMP7 stimulus, peptides of Synthesis 2, classes A-D, ND
[8] = BMP4 0.2 nM stimulus, peptide conc. in assay 0.2, 2, 20 nM
[9] = BMP7 10 nM stimulus, peptide conc. in assay 1, 10, 100 nM

## CC(C)C[C@@H]1NC(=O)[C@H](Cc2ccccc2)N(C)C(=O)[C@H](CCCC(=O)O)NC(=O)[C@H](CC2CCCCC2)NC(=O)[C@H](CCC(=O)O)NC(=O)[C@H](CC(=O)O)NC(=O)CNC(=O)[C@H](Cc2ccc(-c3ccccc3)nc2)NC(=O)CNC(=O)[C@H](Cc2ccccc2)N(C)C(=O)CNC(=O)[C@H](Cc2ccccc2)NC(=O)CSC[C@@H](C(=O)NCCC(=O)N[C@H](CCC(=O)O)C(=O)O)NC(=O)[C@@H]2C[C@H](O)CN2C1=O [SEQ ID No. 415, ClAc-F-G-MeF-G-3Py6Ph-G-D-E-Cha-Hgl-MeF-L-P4Sh-C-bA-de-OH] ({CH2CO}-FG[NMeF]G[3Pal(6-Ph)]GDE[Cha][Aad][NMeF]L[cisHyp]C[βAla][dE]-OH; thioether N-14)
[1]; SMAD1 phosphorylation, peptides of Synthesis 2, peptide 0.02, 0.2, 2 nM
  aLISA BMP4: A (showed an inhibitory activity of 50% or more in a zone to which the peptide was added to in an amount of 0.2 nM)
[2]; 10 nM BMP7, peptides of Synthesis 2, peptide 1, 10, 100 nM
  aLISA BMP7: C (showed less than 50% of inhibitory activity in 10 nM-addition zone and showed 50% or more of inhibitory activity in 100 nM-addition zone)

## 254 (ERVYVSR[3Pal(6-Ph)]S[hTyr]V[Bip]Y[Phe(4-COOH)][Phe(4-COOH)]SCG-NH2; not fully specified) [compound 254]
[1]
  aLIZA BMP4 (0.2 nM) % Inh: C (showed less than 30% of inhibitory activity in 0.2 nM-addition zone and showed 30% or more of inhibitory activity in 2 nM-addition zone)
[2]; [3]
  aLIZA BMP7 (10 nM) % Inh: ND (the inhibitory activity was less than 30% at the maximum concentration evaluated)

## 278 (E[KCOpipzaa]V[Phe(4-COOH)]V[KCOpipzaa]R[3Pal(6-Ph)][KCOpipzaa]Y[Hyp][Bip][4Pal][Phe(4-COOH)][Phe(4-COOH)]SCG-NH2; not fully specified) [compound 278]
[1]; BMP4 0.2 nM stimulus
  aLIZA BMP4 (0.2 nM) % inh: C (showed less than 30% of inhibitory activity in 0.2 nM-addition zone and showed 30% or more of inhibitory activity in 2 nM-addition zone)
[2]; BMP7 10 nM stimulus, peptide conc. in assay 100, 300, 1000 nM
  aLIZA BMP7 (10 nM) % inh: ND (the inhibitory activity was less than 30% at the maximum concentration evaluated)

## 325 (FG[NMeF]G[Phe(4-(4-pyridyl))]GDD[Cha]A[NMeF]LHCG-NH2; not fully specified) [compound 325]
[1]; [4]
  aLISA BMP4 (0.2 nM) % inh: ND (the inhibitory activity was less than 30% at the maximum concentration evaluated)
[2]; [5]
  aLISA BMP7 (10 nM) % inh: D (showed less than 30% of inhibitory activity in 10 nM-addition zone and showed 30% or more of inhibitory activity in 100 nM-addition zone)

## 251 (ERVYVDR[3Pal(6-Ph)]S[hTyr]V[Bip]Y[Phe(4-COOH)][Phe(4-COOH)]SCG-NH2) [compound 251]
[1]
  aLIZA BMP4 (0.2 nM) % Inh: C (showed less than 30% of inhibitory activity in 0.2 nM-addition zone and showed 30% or more of inhibitory activity in 2 nM-addition zone)
[2]; [3]
  aLIZA BMP7 (10 nM) % Inh: ND (the inhibitory activity was less than 30% at the maximum concentration evaluated)

## 371 (FGFGFGDDAAFLHCG; not fully specified; MOD_RES 3 F represents Methyl-L-phenylalanine(MeF); MOD_RES 5 F represents (S)-3-(1,1'-Biphenyl-4-yl)-2-aminopropanoic acid(Bph); MOD_RES 9 A represents (S)-2-Amino-3-cyclohexylpropanoic acid(Cha); MOD_RES 11 F represents Methyl-L-phenylalanine(MeF)) [compound 371]
[1]; SMAD1 phosphorylation, BMP4 0.2 nM, peptide conc. in assay 2, 20, 200 nM
  aLISA BMP4 (0.2 nM) % inh: A (showed less than 30% of inhibitory activity in 2 nM-peptide-addition zone and showed 30% or more of inhibitory activity in 20 nM-addition zone)
[2]; SMAD1 phosphorylation, BMP7 10 nM, peptide conc. in assay 10, 30, 90 nM
  aLISA BMP7 (10 nM) % inh: E (showed 30% or more of inhibitory activity in 10 nM-addition zone)

## 367 (FG[NMeF]GFGDE[Cha]Q[NMeF]LHCG-NH2; not fully specified (N-terminus, bridges)) [compound 367]
[1]; [4]
  aLISA BMP4 (0.2 nM) % inh: ND (the inhibitory activity was less than 30% at the maximum concentration evaluated)
[2]; [5]
  aLISA BMP7 (10 nM) % inh: D (showed less than 30% of inhibitory activity in 10 nM-addition zone and showed 30% or more of inhibitory activity in 100 nM-addition zone)

## 273 (ERV[Phe(4-COOH)]VDR[3Pal(6-Ph)][KCOpipzaa]YV[Bip][4Pal][Phe(4-COOH)][Phe(4-COOH)]SCG-NH2; not fully specified) [compound 273]
[1]; BMP4 0.2 nM stimulus
  aLIZA BMP4 (0.2 nM) % inh: C (showed less than 30% of inhibitory activity in 0.2 nM-addition zone and showed 30% or more of inhibitory activity in 2 nM-addition zone)
[2]; BMP7 10 nM stimulus, peptide conc. in assay 10, 100, 1000 nM
  aLIZA BMP7 (10 nM) % inh: ND (the inhibitory activity was less than 30% at the maximum concentration evaluated)

## 121 ({CH2CO}-ERV[Phe(4-COOH)]VDR[Bip]PYP[Bip]Y[Phe(4-COOH)][Phe(4-COOH)]SC[βAla][dE]-OH; thioether N-17; not fully specified) [compound 121]
[1]; [6]
  aLISA BMP4: A (showed an inhibitory activity of 50% or more in a zone to which the peptide was added to in an amount of 0.2 nM)
[2]; [7]
  aLISA BMP7: B (showed less than 50% of inhibitory activity in 1 nM-addition zone and showed 50% or more of inhibitory activity in 10 nM-addition zone)

## 48 (Ac-ARVYVDR[Bip]PYP[Bip]Y[Phe(4-COOH)][Phe(4-COOH)]SC[βAla]K-NH2; thioether (positions not given here); not fully specified (bridges)) [compound 48]
[1]; inhibition of SMAD1 phosphorylation by BMP4 stimulus, AlphaLISA, class by peptide concentration zone
  aLISA BMP4: C (showed an inhibitory activity of less than 50% in 0.2 nM-addition zone and showed an inhibitory activity of 50% or more in 2 nM-addition zone were defined as B or C)
[2]; inhibition of SMAD1 phosphorylation by BMP7 stimulus, AlphaLISA, class by peptide concentration zone
  aLISA BMP7: ND (the inhibitory activity was less than 30% at the maximum concentration evaluated)

## 328 (FG[NMeF]G[3Pal(6-Ph)]GDD[Cha]A[NMeF]LHCG-NH2; not fully specified (N-terminus, bridges)) [compound 328]
[1]; [4]
  aLISA BMP4 (0.2 nM) % inh: ND (the inhibitory activity was less than 30% at the maximum concentration evaluated)
[2]; [5]
  aLISA BMP7 (10 nM) % inh: D (showed less than 30% of inhibitory activity in 10 nM-addition zone and showed 30% or more of inhibitory activity in 100 nM-addition zone)

## 416 ([Phe(4-F)]G[NMeF]G[3Pal(6-Ph)]GDE[Cha][Aad][NMePhe(4-Me)]L[cisHyp]C-NH2; not fully specified) [compound 416]
[1]; [8]
  aLISA BMP4 (0.2 nM) % inh: ND (the inhibitory activity was less than 30% at the maximum concentration evaluated)
[2]; [9]
  aLISA BMP7 (10 nM) % inh: D (showed less than 30% of inhibitory activity in 10 nM-addition zone and showed 30% or more of inhibitory activity in 100 nM-addition zone)

## 355 (FG[NMeF]G[Bip]GDD[Cha]A[NMeF]L[Hyp]CG-NH2; not fully specified (N-terminus, bridges)) [compound 355]
[1]; [4]
  aLISA BMP4 (0.2 nM) % inh: A (showed less than 30% of inhibitory activity in 2 nM-peptide-addition zone and showed 30% or more of inhibitory activity in 20 nM-addition zone)
[2]; [5]
  aLISA BMP7 (10 nM) % inh: D (showed less than 30% of inhibitory activity in 10 nM-addition zone and showed 30% or more of inhibitory activity in 100 nM-addition zone)

## 415 (FGFGAGDEAEFLPCAE; not fully specified; MOD_RES 3 F represents Methyl-L-phenylalanine(MeF); MOD_RES 5 A represents (S)-2-Amino-3-(6-phenylpyridin-3-yl)propanoic acid(3Py6Ph); MOD_RES 9 A represents (S)-2-Amino-3-cyclohexylpropanoic acid(Cha); MOD_RES 10 E represents L-2-Amino adipic acid (Hgl); MOD_RES 11 F represents Methyl-L-phenylalanine(MeF); MOD_RES 13 P represents (2S,4S)-4-Hydroxypyrrolidine-2-carboxylic acid(P4Sh); MOD_RES 15 A) [compound 415]
[1]; [8]
  aLISA BMP4 (0.2 nM) % inh: ND (the inhibitory activity was less than 30% at the maximum concentration evaluated)
[2]; [9]
  aLISA BMP7 (10 nM) % inh: D (showed less than 30% of inhibitory activity in 10 nM-addition zone and showed 30% or more of inhibitory activity in 100 nM-addition zone)

## 97 ({CH2CO}-ERVYV[KCOpipzaa]R[Bip]SYP[Bip]Y[Phe(4-COOH)][Phe(4-COOH)]SC[βAla][dE]-OH; thioether N-17; not fully specified) [compound 97]
[1]; [6]
  aLISA BMP4: A (showed an inhibitory activity of 50% or more in a zone to which the peptide was added to in an amount of 0.2 nM)
[2]; [7]
  aLISA BMP7: B (showed less than 50% of inhibitory activity in 1 nM-addition zone and showed 50% or more of inhibitory activity in 10 nM-addition zone)

## 361 (FG[NMeF]G[Bip]GDE[Cha]A[NMeF]L[Phe(4-COOH)]CG-NH2; not fully specified (N-terminus, bridges)) [compound 361]
[1]; [4]
  aLISA BMP4 (0.2 nM) % inh: ND (the inhibitory activity was less than 30% at the maximum concentration evaluated)
[2]; [5]
  aLISA BMP7 (10 nM) % inh: D (showed less than 30% of inhibitory activity in 10 nM-addition zone and showed 30% or more of inhibitory activity in 100 nM-addition zone)
